The values that follow come from publication PMC6423188, “HYNIC and DOMA conjugated radiolabeled bombesin analogs as receptor-targeted probes for scintigraphic detection of breast tumor” (EJNMMI Research, 2019).

One series deals with T1, GRPR (Homo sapiens, UniProt P30550).
T1 construct: endogenous in cells; host or cells: MDA-MB-231 human breast cancer cells (from NCCS, Pune)
Description: In vitro receptor binding assay, competition with 99mTc-BNS. To be noted: unlabeled analogs, radioligand 99mTc-BNS. Here is the method:
One day prior to the assay, cells at the confluence were placed in 12-well plates. […] Inhibitory assays were done on GRPR-expressing MDA-MB-231 human breast cancer cells using the standard procedure with modifications. […] After 1-h incubation, cells were washed twice with cold PBS. Receptor bound radioactivity was recovered by solubilizing the cells with 400 μL 1 N NaOH at 37 °C. Binding activities were evaluated in the gamma counter. IC50 (the best-fit 50% inhibitory concentration) values were determined using nonlinear regression.
It may be mentioned that non-radioactive Re complex can be used in place of its unlabeled ligand to determine the binding affinity after complexation reaction. This is being proposed to use the non-radioactive Re complex in place of its unlabeled ligand to determine the binding affinity after complexation in future studies.

The next series relates to MDA-MB-231 cells. Description: Western blot analysis. The series is classed as cell-based, human. To be noted: 24 h, BN3, BN4 7.5 and 5 pM, BNS 7.5 pM. The source says:
After washing in ice-cold PBS, proteins were extracted from cells with lysis buffer containing 100 mmol/L Tris-HCl, pH 8.0, 150 mmol/L NaCl, 1% sodium dodecyl sulfate, 10% glycerol, 1% Triton X, 5 mmol/L ethylenediaminetetraacetic acid, 1 mmol/L phenyl methyl sulfonyl fluoride, 10 mmol/L sodium fluoride, 1 mmol/L sodium orthovanadate, 1 mmol/L-glycerophosphate, and protease inhibitor cocktail tablets (Roche, Switzerland). Total proteins from cell were also extracted by using standard procedure. Protein concentrations were determined by Bradford reagent (BioRad, USA). Extracted proteins were separated by sodium dodecyl sulphate polyacrylamide gel electrophoresis and transferred to polyvinylidene fluoride (PVDF) membranes. Membranes blocking were done by 5% nonfat milk in Tris-buffered saline containing 0.1% polysorbate-20 and incubated with primary antibodies GRPR (Abcam, USA), VEGF, PCNA, Phospho-p38, and HIF-1α (Santa Cruz Biotechnology) for overnight at 4 °C. β-actin antibodies (Millipore) were used to confirm equal protein loading. Detection of primary antibodies was done by alkaline phosphatase conjugated secondary antibodies (1:5000 dilutions) and the detection was done by colorimetry using NBT-BCIP as substrate (Sigma-Aldrich). Detection of GRPR primary antibody was done by horseradish peroxidase conjugated secondary antibodies. The level of β-actin was used as a loading control and was not altered under any of the condition used.

The nature of a further series: in vitro. The series is classed as in vitro ADME. To be noted: rat. In outline:
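^99mTc tracer incubated in fresh rat serum at 37 °C for 1 h, proteins precipitated with 10% trichloroacetic acid and centrifuged. Binding % = precipitate counts / (precipitate + supernatant counts) × 100; run in triplicate.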

The subject of series [1] is MDA-MB-231 tumor-bearing mice. Nature of the series: In vivo biodistribution. Set-up: species or system mouse. To be noted: for Tumor uptake: MDA-MB-231 tumor; for Tumor uptake / Blood uptake / Heart uptake / Intestine uptake / Kidney uptake / Liver uptake / Lung uptake / Muscle uptake / Pancreas uptake / Spleen uptake / Stomach uptake / Urine + urinary bladder uptake: mean ± SD, n = 3. Put shortly:
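BALB/c mice immunosuppressed with cyclosporine-A (30 mg/kg/day i.p.) bore subcutaneous MDA-MB-231 tumours (~0.5 cm); ^99mTc-bombesin analogs given i.v. via tail vein, three mice per group. Organs excised at 5, 30, 60 and 120 min and gamma-counted as decay-corrected %IA/g; blocking used 0.03 nmol tracer (2 MBq) plus 25 nmol unlabelled BN peptide, read at 60 and 120 min.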

The nature of a further series: physchem. The series is classed as physicochemical. The note with it: pH 7.4. In outline: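 HPLC-purified 99mTc-labeled peptides were shaken 2 min at room temperature between 1 mL n-octanol and 1 mL PBS (0.025 M, pH 7.4), then centrifuged to separate the phases. Each phase was γ-counted. logD was derived as log10 of the background-corrected octanol/buffer cpm ratio.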

The subject of another series is MDA-MB-231 tumor. Description: Angiogenic and proliferative markers in tumor (IHC). The series is classed as in vivo, mouse. The note with it: tumor-bearing mice treated i.v. every day for 2 weeks. As to the method: Tumor-bearing mice were intravenously treated with BN4 peptide at every day for 2 weeks as BN4 has shown the highest affinity and stability to GRP with compare to other analogs. Mice were sacrificed and tumor tissue sections were used for immunohistochemical (IHC) analyses. IHC was performed by the aforementioned methods with the primary antibodies such as anti-CD31 and anti-Ki67 (Abcam, Cambridge, Massachusetts, USA) to determine the expression of angiogenic and proliferative markers in the tumor.

Setting [2] is: GRP receptor expressing MDA-MB-231 cells, values printed in Fig. 4.
Setting [3] is: MDA-MB-231 cells/membranes, 1 h, 37 °C.
The mark [4] stands for this setting: 60 min p.i., blocked with excess non-radiolabeled BN peptide.

Where a SMILES comes first, the peptide text is derived from it.

T1 sequence (P30550 whole entry): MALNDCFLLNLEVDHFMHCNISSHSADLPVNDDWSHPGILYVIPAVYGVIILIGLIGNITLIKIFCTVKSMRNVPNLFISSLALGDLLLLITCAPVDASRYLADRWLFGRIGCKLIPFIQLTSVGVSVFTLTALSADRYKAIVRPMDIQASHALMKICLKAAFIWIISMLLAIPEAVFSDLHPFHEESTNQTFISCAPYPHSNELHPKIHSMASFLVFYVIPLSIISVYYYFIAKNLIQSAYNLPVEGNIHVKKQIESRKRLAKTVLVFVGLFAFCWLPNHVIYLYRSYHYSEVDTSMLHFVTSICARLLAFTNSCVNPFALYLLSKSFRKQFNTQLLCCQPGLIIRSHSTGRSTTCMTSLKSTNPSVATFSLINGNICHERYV

As a reminder, the IC50 is the concentration that inhibits the measured activity by half. Consider `CCCC[C@H](NC(=O)[C@@H](Cc1ccccc1)NC(=O)[C@H](Cc1c[nH]cn1)NC(=O)CNC(=O)[C@@H](NC(=O)[C@H](C)NC(=O)[C@H](Cc1c[nH]c2ccccc12)NC(=O)[C@H](CCC(N)=O)NC(=O)[C@H](CC(=O)O)NC(=O)c1ccc(NN)nc1)C(C)C)C(N)=O` [BN1, HYNIC-Asp-[D-Phe^13Nle^14]BN(7-14)NH2] (HELM PEPTIDE1{[NNc1ccc(C(=O)[*:2])cn1].D.Q.W.A.V.G.H.[dF].[Nle].[am]}$$$$V2.0), for which the results for the IC50 on GRPR (setting [2]) and at GRPR (setting [3]) were 4.47 nM and 3.96 nM, respectively.

Turning to `CSCC[C@H](NC(=O)[C@H](CC(C)C)NC(=O)[C@H](Cc1c[nH]cn1)NC(=O)CNC(=O)[C@@H](NC(=O)[C@H](C)NC(=O)[C@H](Cc1c[nH]c2ccccc12)NC(=O)[C@@H](N)CCC(N)=O)C(C)C)C(N)=O` [BNS, reference compound], the “level of GRPR (Western blot)” value in the series with MDA-MB-231 cells is given as “significantly increased level of GRPR”.

On to “^99mTc-BN(7-14)NH2 [99mTc-BNS, reference compound]”, for which the “Percentage of plasma protein binding” value in “in vitro” was 54%. In series [1] (5 min p.i., i.v.), this compound came in with a Tumor uptake of 0.45 ± 0.12 %IA/g, a Blood uptake of 1.25 ± 0.05 %IA/g, a Heart uptake of 1.80 ± 0.02 %IA/g and an Intestine uptake of 0.84 ± 0.03 %IA/g. In series [1] (5 min p.i., i.v.), this compound came in with a Kidney uptake of 2.86 ± 0.10 %IA/g, a Liver uptake of 1.60 ± 0.07 %IA/g, a Lung uptake of 1.35 ± 0.04 %IA/g and a Muscle uptake of 0.16 ± 0.03 %IA/g. Further, in series [1] (5 min p.i., i.v.), the Pancreas uptake is 0.88 ± 0.01 %IA/g, the Spleen uptake is listed as 0.22 ± 0.04 %IA/g, the Stomach uptake is recorded as 0.76 ± 0.03 %IA/g and the “Urine + urinary bladder uptake” value is given as 0.56 ± 0.02 %IA/g. Besides, in series [1] (30 min p.i., i.v.), the Tumor uptake is 0.95 ± 0.05 %IA/g, the Blood uptake came to 1.02 ± 0.03 %IA/g, the Heart uptake is 1.10 ± 0.01 %IA/g and the Intestine uptake was determined as 0.52 ± 0.05 %IA/g. In series [1] (30 min p.i., i.v.), this compound returned a Kidney uptake of 3.12 ± 0.20 %IA/g, a Liver uptake of 0.85 ± 0.06 %IA/g, a Lung uptake of 0.84 ± 0.11 %IA/g and a Muscle uptake of 0.26 ± 0.02 %IA/g. Also, in series [1] (30 min p.i., i.v.), the Pancreas uptake is recorded as 1.73 ± 0.10 %IA/g, the Spleen uptake turned out to be 0.18 ± 0.03 %IA/g, the Stomach uptake was determined as 0.69 ± 0.05 %IA/g and the “Urine + urinary bladder uptake” value amounted to 1.92 ± 0.07 %IA/g. Besides, the tumor/kidney ratio in series [1] (60 min p.i.) amounted to 0.26. Moreover, in series [1] (setting [4]), the Tumor uptake came out at 0.68 ± 0.20 %IA/g, the Blood uptake is given as 0.84 ± 0.01 %IA/g, the Heart uptake is 0.77 ± 0.11 %IA/g and the Intestine uptake was determined as 0.36 ± 0.02 %IA/g. In series [1] (setting [4]), this compound registered a Kidney uptake of 2.88 ± 0.12 %IA/g, a Liver uptake of 0.42 ± 0.04 %IA/g, a Lung uptake of 0.70 ± 0.05 %IA/g and a Muscle uptake of 0.17 ± 0.03 %IA/g. For the same compound, in series [1] (setting [4]), the Pancreas uptake is on record as 0.90 ± 0.02 %IA/g, the Spleen uptake is recorded as 0.10 ± 0.03 %IA/g, the Stomach uptake came out at 0.45 ± 0.01 %IA/g and the “Urine + urinary bladder uptake” value was 2.58 ± 0.18 %IA/g. In series [1] (60 min p.i., i.v.), this compound gave a Tumor uptake of 0.75 ± 0.04 %IA/g, a Blood uptake of 0.82 ± 0.01 %IA/g, a Heart uptake of 0.79 ± 0.12 %IA/g and an Intestine uptake of 0.31 ± 0.02 %IA/g. For the same compound, in series [1] (60 min p.i., i.v.), the Kidney uptake is listed as 2.82 ± 0.16 %IA/g, the Liver uptake was 0.40 ± 0.05 %IA/g, the Lung uptake is on record as 0.68 ± 0.03 %IA/g and the Muscle uptake turned out to be 0.18 ± 0.04 %IA/g. Further, in series [1] (60 min p.i., i.v.), the Pancreas uptake turned out to be 1.14 ± 0.05 %IA/g, the Spleen uptake stood at 0.11 ± 0.02 %IA/g, the Stomach uptake came to 0.46 ± 0.04 %IA/g and the “Urine + urinary bladder uptake” value stood at 2.54 ± 0.22 %IA/g. Besides, in series [1] (120 min p.i., i.v.), the Tumor uptake came to 0.58 ± 0.01 %IA/g, the Blood uptake was found to be 0.54 ± 0.01 %IA/g, the Heart uptake was found to be 0.50 ± 0.01 %IA/g and the Intestine uptake is reported as 0.22 ± 0.01 %IA/g. In series [1] (120 min p.i., i.v.), this compound registered a Kidney uptake of 2.40 ± 0.12 %IA/g, a Liver uptake of 0.22 ± 0.02 %IA/g, a Lung uptake of 0.33 ± 0.02 %IA/g and a Muscle uptake of 0.11 ± 0.02 %IA/g. In addition, in series [1] (120 min p.i., i.v.), the Pancreas uptake is 0.95 ± 0.04 %IA/g, the Spleen uptake came to 0.06 ± 0.11 %IA/g, the Stomach uptake came to 0.12 ± 0.02 %IA/g and the “Urine + urinary bladder uptake” value was 2.85 ± 0.03 %IA/g. Moreover, in “physchem”, the logD entry is recorded as “− 0.42 ± 0.10”.

At GRPR (setting [3]), `CCCC[C@H](NC(=O)[C@@H](Cc1ccc(O)cc1)NC(=O)[C@H](Cc1c[nH]cn1)NC(=O)[C@@H]1CCCN1C(=O)[C@@H](NC(=O)[C@H](C)NC(=O)[C@H](Cc1c[nH]c2ccccc12)NC(=O)[C@H](CCC(N)=O)NC(=O)CCCNC(=O)CN1CCNCCNCCNCC1)C(C)C)C(N)=O` [BN4, DOMA-GABA-[Pro^5-D-Tyr^13Nle^14]-BN(7-14)-NH2] (HELM PEPTIDE1{[O=C(CN1CCNCCNCCNCC1)[*:2]].[O=C(CCCN[*:1])[*:2]].Q.W.A.V.P.H.[dY].[Nle].[am]}$$$$V2.0) returned an IC50 of 3.15 nM. Further, the “level of GRPR (Western blot)” value in the series on MDA-MB-231 cells is on record as “significantly increased level of GRPR”. Moreover, in the series with MDA-MB-231 tumor, the “expression of CD31 and Ki67 in tumor sections (IHC)” value was “enhanced expression of CD31, Ki67”.

Regarding `CCCC[C@H](NC(=O)[C@@H](CC1CCCCC1)NC(=O)[C@H](Cc1c[nH]cn1)NC(=O)[C@H](CCCCN)NC(=O)[C@@H](NC(=O)[C@H](C)NC(=O)[C@H](Cc1c[nH]c2ccccc12)NC(=O)[C@H](CCC(N)=O)NC(=O)[C@H](CC(N)=O)NC(=O)[C@H](CC(=O)O)NC(=O)c1ccc(NN)nc1)C(C)C)C(N)=O` [BN3, HYNIC-Asp-Asn-[Lys^5-D-CHAla^13Nle^14]BN(7-14)-NH2] (HELM PEPTIDE1{[NNc1ccc(C(=O)[*:2])cn1].D.N.Q.W.A.V.K.H.[O=C([C@@H](CC1CCCCC1)N[*:1])[*:2]].[Nle].[am]}$$$$V2.0), the “level of GRPR (Western blot)” value in the series on MDA-MB-231 cells is on record as “significantly increased level of GRPR”.

Compound `CSCC[C@H](NC(=O)[C@@H](Cc1ccc(O)cc1)NC(=O)[C@H](Cc1c[nH]cn1)NC(=O)CNC(=O)[C@@H](NC(=O)[C@H](C)NC(=O)[C@H](Cc1c[nH]c2ccccc12)NC(=O)[C@H](CCC(N)=O)NC(=O)[C@H](CC(=O)O)NC(=O)[C@@H]1CCCN1C(=O)c1ccc(NN)nc1)C(C)C)C(N)=O` [BN2, HYNIC-Pro-Asp-[D-Tyr^13Met^14] BN(7-14)NH2] (HELM PEPTIDE1{[NNc1ccc(C(=O)[*:2])cn1].P.D.Q.W.A.V.G.H.[dY].M.[am]}$$$$V2.0) registered an IC50 on GRPR (setting [2]) of 4.63 nM. This counts as single-digit nanomolar.
